Data: patent US20090176209A1

Molecular target: scArc-Vκ(E5)-HA fusion protein (Vκ(E5) fused to the C-terminus of scArc; pIE3AVκ(E5) series constructs) (phage P22)
Test: emulsion expression of the pIE3a^4AVκ(E5)-derived template; capture on 3F10-coated PCR tubes; quantitative PCR

**Q.** For “αHA rat mAb 3F10 (Roche), High Affinity anti-HA monoclonal antibody”, which percent of the total input genetic element DNA recovered in complex with the fusion protein on the mAb-coated surface is on record?
**A.** Its percent of the total input genetic element DNA recovered in complex with the fusion protein on the mAb-coated surface is over 23%.
